The data set in a line: soluble on expression in E. coli; label from the status in PepcDB or PDB records.
Consider “MKGFGMFRFRRTFVPQIDMRNCGVAALASVAKYYGSDYSLAHLRELAKTNKEGTTALGLVEAAKKIGFETRAIKAEMSLFEMEDVPYPFIAHVNKDGKLQHYYVIYKSTKDYLIIGDPDPSVKVTKMTKERFEKEWTGVTLFMGPEPS”, for which the “soluble on expression in E. coli” value is “not soluble”.
For the sequence “MGSDKIHHHHHHVPSACRLSTCRFQDVCLSQIAAYWPARFTRTSEGVGKMAEMVTIKEADLIESVADALQYISYFHPMDYIRALGEAYKAEQGPAAKDAIAQILTNSRMCAEGHRPICQDTGIVNVFIEWGQDCRLESDLSLQDVVDEGVRRAYNNPDNKLRASVLADPAFTRRNTRDNTPCVLHVEMVKGNKVTVDVAAKGGGSENKSKFKMMNPSDSIVDWVIEMLPQMGAGWCPPGMLGIGIGGTAEHCVLLAKKALMEPIDMAQLKQRGPQTDIERLRIEIFDKVNALGIGAQGLGGLSTILDVKIMDAPCHAAGKPVAMIPNCAATRHAHFTLDGSGPTFLERPKLDEWPEVHWAPDSAARRVDLDTLTQEEVQSWKAGDRLLLNGKMLTGRDAAHKRIKDMLAKGEELPVDFKGRVIYYVGPVDPVRDEVVGPAGPTTATRMDSFSDTMLDLGLLASVGKAERGPAATQSIANHKSAYLMAVGGAAYLVARAIKEAKVVGFEDLGMEAIYEFTVEDMPVTVAVDSGGQNVHQLAPLVWKKKIAEEHLLPA”, the “soluble on expression in E. coli” value was “not soluble”.
As for “MHHYRVSGWTLATEIPLPHLFPCSAPAGEAAADITLRQGPVPPPPVPLRLDRDGIQVGADGHTVIDIPNCVRIGLTGGRDIMVDPAPGASWPEIQTWLLGPGLGVICHQRGVLPLHACAIRTGKGGLAIVGNSGAGKSTTATALVQRGHRLLGDDVLVVDPDTGLAQPCFPMVKLWDSSRSALDIGQEGQQSVGGKIGKWHMPMLAAFDPVPRPLSAIVHLRADPAARRPVLTRWPRPHAAAVLDAMTYRVYLADALHGRRHVLSAATRLAAHVPVWELVRTADFADLAEMLDMLEGLAGALEHHHHHH”, the entry is “not soluble”.
For “MKLFRVVKRGYYISYAILDNSTIIRLDEDPIKALMRYSENKEVLGDRVTGIDYQSLLKSFQINDIRITKPIDPPEVWGSGISYEMARERYSEENVAKILGKTIYEKVYDAVRPEIFFKATPNRCVGHGEAIAVRSDSEWTLPEPELAVVLDSNGKILGYTIMDDVSARDLEAENPLYLPQSKIYAGCCAFGPVIVTSDEIKNPYSLDITLKIVREGRVFFEGSVNTNKMRRKIEEQIQYLIRDNPIPDGTILTTGTAIVPGRDKGLKDEDIVEITISNIGTLITPVKKRRKIT” the value was “soluble”.
As for “MEGTPNVPQAHRYELTLAGRPLVLETGKYAKQASGSVLVRYADTVVLATAQASETPVEADFLPLTVEFEERHYAVGKIPGSFMRREGRPGEKAILSARMTDRPIRPLFPKGFRHEVQIIVTVLSADQKNPPDILGPIAASAALMLSDIPWEGPIAAVRVGLIGGSFVLNPTLQELEESQLDLVVAGSKEAILMVEAEAGEVDEETLVQALEFAHKEMQPILELQEAMARELAKPKMAWTPPESLPEEEKEALYRLALERGLSQVLQTASKGERSRALAEFAERLIAEALPKGEDGTPDEGKKPLYESAFDEVVRRELRRLVLEEGKRADGRGPKDLRPIWIEVDVLPRAHGSAVFTRGETQVLGTVTLGTGRDEQILDDLGIDETEKFLVHYNFPPFSTGEVRRLRGVSRREVGHGNLAKRALKAVMPKEEDFPYTIRVVGDVLESNGSSSMATVCAGCLALMDAGVPIRAPVAGVAMGLVWEENRAVILTDILGLEDALGDMDFKVAGTRKGVTALQMDNKVGGLPREVLKEALLQAREARLKILDLMEAVLPAPRPELKPFAPRILSLKVPVEKIGLVIGPGGKNVRALEELGVEVDIEEDGTVRIYSSDLQAALEAKKRIEDLTREAKVGEIYEGTVTRITPFGAFISLFPGTEGLLHISQIAPGRVARVEDHLKVGDVIKVKVHRIDERGKIDLIRPELEGKIPPRRRR”, the “soluble on expression in E. coli” value was “soluble”.
As for “MGSDKIHHHHHHMFVPAPDATITNCRNCPLRRKPLFLPFSDSELSFMEQFKVGELVVAPGVTLLEEGQGSAHLFTVLSGLGIRSTMLENGRRQVINFLFPGDFIGLQAGLAGEMRHSVESTTTMVLCVFNRADLWDLFREEPERAYDLTWIAAVEEHFLGETIASLGQRDATERLAWALLRIHERLSAIGLAERGRVPMPWRQQDLADALGLSLVHTNKTIRRLRETGHALWEGGTLFVDRERLATLALADPDRPRRRPLI”, the entry is “not soluble”.
For “MSFDGFFLHHMTAELREQVLYGRIQKVNQPFERELVLTIRNNRQNYKLLLSAHPVFGRIQTTKAELPNPQNPNTYTMIMRKYLQGAVIEDIQQLENDRVLEISVSNKNEIGDSVKVTLVMEIMGKHSNIILIDKNENKIIESIKHVGFSQNSYRTILPGSTYIAPPKTDARNPFDISDENLFELLQTEDLSAKNLQKLFQGLGRDTANELSALLETDKLKNFRDFFNREVEPNLTTKAFSAVRFSDSQDQPEFETLSELLDYYYLDKAARDRVAQQASDLIHRVQNELEKNKKKLVKQEKELAATENAEEFRQKGELLTTFLSMVPNDKDSVELDNYYTGEKITIPLNVALTPNQNAQRYFKKYQKLKEAVKHLTGLIEETKQTINYLESVEFSLSQANMDEIEDIREELVQAGFMRRRSTDKRQKRKK” the value was “not soluble”; for “MGHHHHHHSHMAGGGAGDPGLGAAAAPAPETREHLFKVLVIGELGVGKTSIIKRYVHQLFSQHYRATIGVDFALKVLNWDSRTLVRLQLWDIAGQERFGNMTRVYYKEAVGAFVVFDISRSSTFEAVLKWKSDLDSKVHLPNGSPIPAVLLANKCDQNKDSSQSPSQVDQFCKEHGFAGWFETSAKDNINIEEAARFLVEKILVNHQSFPNEENDVDKIKLDQETLRAENKSQCC”, “soluble”; for “MLRISRDLVIDEDDIEIGFVRASGPGGQNVNKVATSAQLRFDTRKLTLPEDATIRLARIAGQRMTKDGVIVIHAQRFRTQERNRQDAIDRLVEILSEAMIRPKPRRATRPTFGSKQRRLEGKKRRSDVKAGRGRSFDDLEHHHHHH”, “soluble”.
As to “MTESFAELFEASQANLAKLKPGSIVTGTVVEVRGDVVVINAGLKSEGIVPIEQFRNDAGEIDVGVGDQVKVALDSIENGFGETVLSREKAKRAMVWDELEEALEKNETITGRISGKVKGGFTVDIKDVRAFLPGSLVDVRPVRDPAYLEGKELEFKLIKLDRKRNNVVVSRRAVVESEHSEEREQLMDKLQEGAILKGVVKNLTDYGAFVDLGGIDGLLHITDMAWKRVRHPSEVVNVGDELDVRVLKFDRERNRVSLGLKQLGEDPWDNIARRYPANSRVFGKVSNVTDYGAFVEIEPGVEGLVHVSEMDWTNKNVNPSKVVQVGDEVEVMVLDVDEERRRISLGMKQVAANPWETFAATHKKNDKVSGQIKSITDFGIFIGLDGGIDGLVHLSDISWNTTGEDVVRNYKKGDTLEAVVLAVDPERERISLGVKQLEQDPFGQYMASNPKGSKVEGVVREVDAKGATIDLADGIEGYVAARDIANERVDDATQHLKVGDKIEAKFVGMDRKGRTLQLSIKAKDDAEMRETLEDYQSASASGGMTQLGALLRAQLNNNKSELEHHHHHH”, the “soluble on expression in E. coli” value is on record as “not soluble”.
For “MGSELLDLSFLSEEEKDLILSVLQRDEEVRKADEKRIRRLKNELLEIKRKGAKRGSQHYSDRTCARCQESLGRLSPKTNTCRGCNHLVCRDCRIQESNGTWRCKVCAKEIEMKKATGDWFYDQKVNRFAYRTGSEIIRMSLRHKPAVSKR” the value was “soluble”; for “MRVGLFTDSYFPQISGVATSIRTLALELEKLGHEVFIFTTTDPNADVDHERNIIRLQSIPFVSLAERKIVLKGVFAAYLIAKEYDLDIIHTQTEFGMGILGKMVAAQLRIPVIHTLHTKYEDYVYYIAKGRLIRPSMVKYIIRNFLRGTEAIICPSEMVLETVNSYGVTLPKRVIPTGIEIDRFKRDDIEPEETAKLRVELGLAENEIMLLSLSRIAAEKNIQAVIHALPDILEEFPVKLVIVGHGPYAENLKELVKELELTDKVVFTGPVENEKTAYYYKAADFFISASTSETQGLTYLEAMAAGTRVLAAKNPYLSELINDDEFGQLFIGDDDLAEVTKKAIRDLHPIDKDKFEKKLYEISAENFAKKVYLFYIDTIIEYNNLKSIEAERFPMKMEDTIRQMPVTVKRSLKREQIRAKYFARKASKLAKNLQSYVKIDKDKEQDLEHHHHHH”, “soluble”; for “MVKRREAFEIEGKRVIAGSQMGIKLPAAKLYTDTQLDIHVEVFHGVKPGPTLLVCAAIHGDELNGIEICRRLLGRVNPKNLAGTLIVVPIVNVFGFIQQSRYLPDRRDLNRCFPGSSKGALASRLANLFATQLLVHATHVIDLHTGAIHRDNLPQIRCDTNDETMLAMANAFGAPLIMHSKARSVSMRGYANQQGIPCILYEAGEALRFSELAIKSGLKGVLNVMRSLGMLKGRVSNKIASVSAIRSYWIRSESDGLVNMKLKLGQRVNKGYIIAHIVSPHGGDSVAIRAPTDGIIIGISNIPVTNEGEGMFHIAQFEGDEIEIANEQLDEFLMEYA”, “not soluble”.
For “MAHHHHHHMSFLPIRVCVLVCSYEGSDSELKEYEGEIVQTPQHYFTEEDSKEFVFTLEFVKKATAYRQIRQLVKSGAFDVFYNQCDGAIDEDKAGVEVVQALESFKVPFTGAISKYYELSKPEMKRMAHYCAVKTAPYAVLEAGDNVRELCAALHFPLIVKHISGYSSVGMDKSCKVYDMDALKERVARFIDQYQSALVEEFISGDEATVLVCADASQPGGIRVFPPVMVQFPEGEDFKHFHLKWETYEGMIWRLVSEDDPALPDIIHIARTAFLHMMGGVGYGRVDVRIDREKNTVVFLEINPNCGIMYPYGQEGSADWILRLTPEFKQKEFAKLQISEAIRIHKCKQPLFRCAYDPVREYYICATRDIPAGSIIFEGEGRLVRLCTKPYVKANWSEVEYNEFLHDAWPVGAEGHYYALWDLESSDWRAVNHSCDPNMGFCPNRSLNVHALRDIAKGEELTMDCRLFMDDTMPPFQCHCKTSICAGWIRGGVMRESHFFESYTERLIHREDKFITQLTRN”, the “soluble on expression in E. coli” value is “not soluble”.
For the sequence “MAHHHHHHMIGGQHTKERLSERLQDCQNQPKNRGYLPGTKLLTGGYSTRTLQGNWAEERMDAGYYDGEAVFPTHLARAWTTDYRTMTSNVSGSLTRPVFDQATLMDIVDHKHRSYPAHQPYLDQQRDEVMQERFKTTTRTSYINPEERKREAQLHIPPVIGRTPTAQARAVILRIQRQLLLSRHGESAFPGNILRQIRLTLQRNDTAGEGMLTVEEAEKGFEEAFLVVSRPECVALVRAFDLKEDGTISIAKIMEELRGELRDRRYSLVEKVYEMLKGFSPDGIVRLQRLAELVDVDSMNAVMNGKVTSSLAHDAFVEQWDLPIDSYISFENFLLYFMDASFEIESDQEFEVFMRNVWHLSGGNGKSMNTSCRRVRVVHRNGRMSTQEVKNDLCIKDSDPNLQERIIANLASWGIKDVARVEMLPRNL”, the “soluble on expression in E. coli” value is on record as “not soluble”.
For “MERQQQQQQQLRNLRDFLLVYNRMTELCFQRCVPSLHHRALDAEEEACLHSCAGKLIHSNHRLMAAYVQLMPALVQRRIADYEAASAVPSVAAEQPGVSPSGS” the value was “soluble”; for “MSAKHPIIAVTGSSGAGTTTTSEAFRKMFNMMSIKPAWVEGDSFHRFTRPEMDVEIRKAREQGRHISYFGPQANDFPTLEEFFRQYGKVGTGQVRRYLHTFDEAVPYNQMPGTFTPWQSLPENSDVLFYEGLHGGVVDGDVNVAQHVDFLIGMVPIVNLEWIQKYVRDTRDRGHSREAVMDSIVRSMDDYLKFITPQFSRTHINFQRVPTVDTSNPLNAKGIPTLDESFVVIRFRGIKNVDFPYLLAMIDGSFMSRHNTIVVPGGKMSFAMDLIVRPLLQQLIETGKIG”, “not soluble”.

The record behind these values is the DeepSol protein solubility set.
